This note sets out measurements from patent US20090280480A1.

In experiment [1] the target is NM fibers (amyloid fibers assembled from Sup35 NM; also used sonicated as seed) (Saccharomyces cerevisiae) (UniProt P05453). Briefly: seeded fibre elongation; sedimentation of soluble NM plus acrylodan wavelength-shift assay, Lineweaver-Burk plot (Michaelis-Menten model of soluble NM binding to seed and converting).
Experiment [2] has the same target. As to the kind of experiment: seeded fibre elongation; sedimentation of soluble NM plus acrylodan wavelength-shift assay, Lineweaver-Burk plot.

Chain of NM fibers (amyloid fibers assembled from Sup35 NM; also used sonicated as seed) (Saccharomyces cerevisiae) (P05453 1-253): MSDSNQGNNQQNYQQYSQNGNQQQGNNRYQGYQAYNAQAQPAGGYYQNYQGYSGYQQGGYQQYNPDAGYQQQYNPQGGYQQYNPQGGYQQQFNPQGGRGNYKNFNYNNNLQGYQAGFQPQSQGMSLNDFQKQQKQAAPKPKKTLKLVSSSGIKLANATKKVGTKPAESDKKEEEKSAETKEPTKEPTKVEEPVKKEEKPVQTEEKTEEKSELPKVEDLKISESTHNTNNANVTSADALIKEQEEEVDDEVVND

One may read the Km as the substrate concentration at which the rate is half of its maximum. Take “NM^T158C-acrylodan (soluble) (from UniProt P05453 1-253) (other; other documents disagree on this pair)”: the Km in experiment [1] was determined as 0.12 µM. Moreover, the kconf/Km (conformational conversion efficiency) in experiment [2] was 42000 M⁻¹ s⁻¹.
